Reference: IntAct's records for PubMed 15047893

B1: Serine/threonine-protein kinase TOUSLED (Arabidopsis thaliana (Mouse-ear cress)), Q39238 (parent)
chain: MSDDMVLHFSSNSSNQSDHSLPDKIAKLEARLTGKTPSSAKPPQQQQQQQQQVSLWSSASAAVKVVTSTPPGLSETSISDSDDENTGDFLIRANTKKRQKVQESNNFSVVDHVEPQEAAYDGRKNDAESKTGLDVSKKKQGRGRASSTGRGRGSKTNNDVTKSQFVVAPVSAASQLDASDQKDFRPDGQLRNGECSLQDEDLKSLRAKIAMLEEELRKSRQDSSEYHHLVRNLENEVKDLKDQEQQGKQKTTKVISDLLISVSKTERQEARTKVRNESLRLGSVGVLRTGTIIAETWEDGQMLKDLNAQLRQLLETKEAIERQRKLLKKRQNGDKNDGTDTESGAQEEDIIPDEVYKSRLTSIKREEEAVLRERERYTLEKGLLMREMKRIRDEDGSRFNHFPVLNSRYALLNLLGKGGFSEVYKAYDLVDHRYVACKLHGLNAQWSEEKKQSYIRHANRECEIHKSLVHHHIVRLWDKFHIDMHTFCTVLEYCSGKDLDAVLKATSNLPEKEARIIIVQIVQGLVYLNKKSQKIIHYDLKPGNVLFDEFGVAKVTDFGLSKIVEDNVGSQGMELTSQGAGTYWYLPPECFELNKTPMISSKVDVWSVGVLFYQMLFGKRPFGHDQSQERILREDTIIKAKKVEFPVTRPAISNEAKDLIRRCLTYNQEDRPDVLTMAQDPYLAYSKK
partner: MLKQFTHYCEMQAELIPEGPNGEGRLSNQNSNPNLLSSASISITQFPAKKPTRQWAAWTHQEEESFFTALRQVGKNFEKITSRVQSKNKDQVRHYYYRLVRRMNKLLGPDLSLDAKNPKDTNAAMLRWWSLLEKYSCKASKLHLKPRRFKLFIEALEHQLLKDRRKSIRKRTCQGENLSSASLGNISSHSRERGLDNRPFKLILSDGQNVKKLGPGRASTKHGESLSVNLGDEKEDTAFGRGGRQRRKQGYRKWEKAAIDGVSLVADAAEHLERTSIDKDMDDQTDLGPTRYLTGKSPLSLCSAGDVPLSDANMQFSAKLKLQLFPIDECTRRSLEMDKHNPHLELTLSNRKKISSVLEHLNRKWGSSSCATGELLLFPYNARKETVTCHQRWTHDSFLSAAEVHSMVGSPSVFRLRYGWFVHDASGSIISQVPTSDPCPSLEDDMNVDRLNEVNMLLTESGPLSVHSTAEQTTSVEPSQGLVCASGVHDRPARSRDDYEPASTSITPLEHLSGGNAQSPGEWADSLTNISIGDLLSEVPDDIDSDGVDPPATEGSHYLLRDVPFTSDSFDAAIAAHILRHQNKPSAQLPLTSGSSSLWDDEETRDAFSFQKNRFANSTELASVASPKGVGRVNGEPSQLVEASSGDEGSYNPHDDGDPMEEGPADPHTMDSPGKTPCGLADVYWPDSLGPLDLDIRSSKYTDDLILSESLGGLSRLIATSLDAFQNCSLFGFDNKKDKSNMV
B2: Serine/threonine-protein kinase TOUSLED (Arabidopsis thaliana (Mouse-ear cress)), Q39238 (parent)
chain: B1 chain
partner: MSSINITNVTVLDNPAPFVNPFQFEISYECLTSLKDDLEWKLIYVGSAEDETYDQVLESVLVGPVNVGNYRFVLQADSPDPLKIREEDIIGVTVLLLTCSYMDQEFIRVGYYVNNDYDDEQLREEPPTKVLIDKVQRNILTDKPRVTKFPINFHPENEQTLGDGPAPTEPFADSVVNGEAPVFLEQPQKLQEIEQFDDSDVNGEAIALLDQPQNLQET

Variants of: B1
Conditions: with tki1_arath TKI1, Q8LJT8

effect of a mutation on the interaction	Variant
disrupting interaction	K438E

Variants of: B2
Conditions: with asf1b_arath ASF1B

effect of a mutation on the interaction	Variant
disrupting interaction	K438E
